The target of assay [1] is T1, human CD3, membrane-expressed (CD3/TCR complex on HPB-ALL cells or purified human T cells) (human, UniProt P07766 23-207; P04234 22-171; P09693 23-182).
T1 construct: whole, on cells; On cells CD3 stands in the complex with the TCR and the zeta chain; also called cell surface expressed CD3/TCR complexes
In words: flow cytometry on HPB-ALL cells.

For assay [2], the target named is T1, human CD3, membrane-expressed (CD3/TCR …). Put plainly: flow cytometry on CD3+ HPB-ALL cells [panel HPB-ALL].
In assay [3] the target is T2, recombinant purified human CLEC12A (Sino Biological Inc, cat. Nr. 11896-H07H) (human, UniProt Q5QGZ9 65-265).
T2 construct: Bought protein; also called CLEC12A protein
T2 sequence (looked up): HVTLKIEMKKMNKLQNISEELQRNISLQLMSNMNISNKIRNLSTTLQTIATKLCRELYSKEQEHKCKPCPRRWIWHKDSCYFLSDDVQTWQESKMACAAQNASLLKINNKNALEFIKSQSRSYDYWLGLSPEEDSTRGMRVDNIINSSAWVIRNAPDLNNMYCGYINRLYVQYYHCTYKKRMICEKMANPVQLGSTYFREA
In words: SPR (BIAcore T100), ratio of the two KD values.

Assay [4] deals with T2, recombinant purified human CLEC12A …. In words: SPR (BIAcore T100), bsAb captured by anti-human IgG on a CM5 chip, antigen in solution; average of three measurements.
Assay [5] has as its target T1, human CD3, membrane-expressed (CD3/TCR …). In words: flow cytometry on HPB-ALL cells [lower panel].
Assay [6] has the same target. Put plainly: flow cytometry on HPB-ALL cells. This is another data set of the same source.
The target is the same in assay [7]. In words: flow cytometry on HPB-ALL cells [upper panel].
Assay [8] has the same target. Put plainly: flow cytometry on HPB-ALL cells [lower panel]. This is another data set of the same source.
Assay [9] shares this target. In words: flow cytometry on HPB-ALL cells [upper panel]. This is another data set of the same source.

Positions count from the first letter of the chain named. Names and notes keep the numbering of the source.

T1 sequence (P07766 23-207, chain 1 of 3): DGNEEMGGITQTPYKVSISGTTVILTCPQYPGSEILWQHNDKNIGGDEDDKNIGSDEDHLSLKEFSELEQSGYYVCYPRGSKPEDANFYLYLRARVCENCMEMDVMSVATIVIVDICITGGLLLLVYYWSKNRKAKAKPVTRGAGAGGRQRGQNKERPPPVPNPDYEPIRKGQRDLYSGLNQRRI
T1 sequence (P04234 22-171, chain 2 of 3): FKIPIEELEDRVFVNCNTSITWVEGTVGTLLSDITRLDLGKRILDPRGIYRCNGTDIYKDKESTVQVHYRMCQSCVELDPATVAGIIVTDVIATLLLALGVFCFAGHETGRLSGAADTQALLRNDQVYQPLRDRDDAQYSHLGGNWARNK
T1 sequence (P09693 23-182, chain 3 of 3): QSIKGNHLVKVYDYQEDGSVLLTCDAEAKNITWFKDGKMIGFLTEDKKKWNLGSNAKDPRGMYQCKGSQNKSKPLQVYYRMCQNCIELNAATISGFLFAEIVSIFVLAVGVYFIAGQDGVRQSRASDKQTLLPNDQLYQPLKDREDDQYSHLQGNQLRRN

B1: PG3873 (antibody, V domains shown)
VH: QVQLVQSGGGVVQPGRSLRLSCVASGFTFSSYGMHWVRQAPGKGLEWVAAIWYQGRKQDYADSVKGRFTISRDNSKNTLYLQMNSLRAEDTAVYYCTRGTGYNWFDPWGQGTLVTVSS
VL: not shown
notes: Full length monoclonal IgG; also called MF3873 as IgG
With B1, the binding result in assay [1] was “no binding (tested: 10 µg/ml)”.

B2: 5196×4327 DM-Fc bsAb (bispecific antibody, V domains shown)
VH 1: B1 VH with Q54N, G55A
VH 2: QVQLVQSGAEVKKPGASVKVSCKASGYTFTSYYMHWVRQAPGQGLEWMGIINPSGGSTSYAQKFQGRVTMTRDTSTSTVYMELSSLRSEDTAVYYCAKGTTGDWFDYWGQGTLVTVSS
VL: not shown
notes: Full length bispecific IgG with the lower hinge/CH2 changes at positions 235-236 (DM-Fc; L235G, G236R) and CH3 heterodimerisation (KK/DE variants) as in WO2014/051433
Regarding B2, in [2], the binding result was “binds”. Moreover, the “fold higher affinity of the CLEC12A arm than of the human CD3 binding arm” value in [3] was about 60 fold. For the same molecule, the Kd in [4] was 3 nM.

B3: PG5356 (antibody, V domains shown)
VH: B1 VH with Q6E, V23A, S31K, A50Q, Y53H, Q54D, Q58T, D59Y
VL: not shown
notes: Monospecific IgG format; also called MF5356 in monospecific IgG format
Take B3: the binding result in assay [5] is “binds”.

B4: PG3905 (antibody, V domains shown)
VH: B1 VH with Q54G
VL: not shown
notes: Full length monoclonal IgG; also called MF3905 as IgG
Regarding B4, the binding result in [1] is recorded as “no binding (tested: 10 µg/ml)”.

B5: PG5196 (antibody, V domains shown)
VH: B1 VH with Q54N, G55A
VL: not shown
notes: Full length monoclonal IgG; also called PG5196 mAb; MF5196 as IgG
As to B5, the binding result in assay [6] is reported as “binds”.

B6: PG5648 (antibody, V domains shown)
VH: B1 VH with Q54N, G55A, D59E, A61L
VL: not shown
notes: Monospecific IgG format; also called MF5648 in monospecific IgG format
For the molecule B6, the binding result in assay [7] is “binds”.

B7: PG5630 (antibody, V domains shown)
VH: B1 VH with Q54N, G55A, F105Y
VL: not shown
notes: Monospecific IgG format; also called MF5630 in monospecific IgG format
For the molecule B7, in assay [7], the binding result is “binds”.

B8: PG5351 (antibody, V domains shown)
VH: B1 VH with V23A, A50M, Q54D, R56K, K57N, Q58T, D59Y
VL: not shown
notes: Monospecific IgG format; also called MF5351 in monospecific IgG format
For B8, in assay [5], the binding result is reported as “binds”.

B9: PG5626 (antibody, V domains shown)
VH: B1 VH with Q54N, G55A, D59E, A61R
VL: not shown
notes: Monospecific IgG format; also called MF5626 in monospecific IgG format
As to B9, the binding result in assay [8] is “binds”.

B10: PG5603 (antibody, V domains shown)
VH: B1 VH with Q54N, G55A, D59E, A61I
VL: not shown
notes: Monospecific IgG format; also called MF5603 in monospecific IgG format
As to B10, the binding result in [7] is “binds”.

B11: PG5354 (antibody, V domains shown)
VH: B1 VH with V23A, S31G, A50Q, W52Y, Q54D, R56S, K57R, Q58T, D59Y
VL: not shown
notes: Monospecific IgG format; also called MF5354 in monospecific IgG format
As for B11, in assay [9], the binding result is recorded as “binds”.

B12: PG5616 (antibody, V domains shown)
VH: B1 VH with Q54N, G55A, D59E, A61N
VL: not shown
notes: Monospecific IgG format; also called MF5616 in monospecific IgG format
Consider B12, for which, in assay [8], the binding result was “binds”.

B13: PG5694 (antibody, V domains shown)
VH: B1 VH with Q54N, G55A, D59E, A61S
VL: not shown
notes: Monospecific IgG format; also called MF5694 in monospecific IgG format
Consider B13, for which the binding result in assay [7] is reported as “binds”.

Source of the values: US20160368988A1 (MERUS N V, published 2016).
